# Source: US20080085860A1 (Eli Lilly, published 2008)
# * marks the point of attachment. Hexanoyl = CCCCCC(=O)*
# T1: Rat VPAC1 receptor (rat, UniProt P30083 31-459)
# T1 sequence (looked up): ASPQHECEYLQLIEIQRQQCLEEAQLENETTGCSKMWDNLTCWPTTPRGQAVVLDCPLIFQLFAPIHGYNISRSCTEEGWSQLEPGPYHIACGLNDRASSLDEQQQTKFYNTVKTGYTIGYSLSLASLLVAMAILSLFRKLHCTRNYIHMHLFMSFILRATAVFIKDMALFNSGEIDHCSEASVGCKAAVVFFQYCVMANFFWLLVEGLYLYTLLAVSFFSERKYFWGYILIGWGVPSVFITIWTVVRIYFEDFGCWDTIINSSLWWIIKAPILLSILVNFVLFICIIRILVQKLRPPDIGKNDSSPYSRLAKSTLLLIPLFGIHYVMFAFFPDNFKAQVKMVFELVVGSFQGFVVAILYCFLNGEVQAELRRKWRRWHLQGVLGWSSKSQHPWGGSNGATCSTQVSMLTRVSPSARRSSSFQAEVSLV
# B1: P136: C6-…(WPEG40K)-NH2 (SEQ ID NO: 44) (peptide)
# peptide: Hexanoyl-HSDAVFTDNYTRLRKQVAAKKYLQSIKNSRTSPPPK-NH2
# modifications: not fully specified (residue 36); printed as C6-HSDAVFTDNYTRLRKQVAAKKYLQSIKNSRTSPPPK(WPEG40K)-NH2
# Biological target: T1, Rat VPAC1 receptor
# Experiment: cell-based or functional assay
binder,measurement,value
B1,"EC50 (nm), in vitro potency using DiscoveRx (cAMP)",15 nM
